# Assay: label from the status in PepcDB records
row,Sequence,protein production
1,MIPTATYRLQFRNGMTFDRAAALVPYLKNLGISHLYASPIFTATKASTHGYDVTDANEIEPSIGGREGFERLVAELKAQGLGLIIDIVPNHMASSLENAWWRDVLEYGKESRYARHFDIDWSRRLTLPFLGDTFDAVLENGEIAIKPDPATGKPAFAYYDNYYPLAPATWQGREAEILALTDKAAIADLHERQPWKLMSWRDAARSLSYRRFFEVTGLVGMRVEDKTVFDDTHRLILELVRTGAVDGLRIDHIDGLADPKAYLARLRQEVGPACYITVEKILAKGEQLPDDWPVSGTTGYEFIASLAEVLVDDEQIDNLRQAYETVKGAPVDMRAELRAAKLLMVDRNFEGEFTRLLALALSIASELQIAQEESVVRQALRELLIAFPVYRTYGTAEGLPPTDICLLHRIVERVKTLETPPQPEALTFLSRLLTGDVPASSQEEATQFRVRFQQLTGPLMAKSVEDTLFFRQNMGLALNEVGAEPVTHHFSIERFHHEMKTRQARQPDALSGTSTHDTKRGEDARARLYTLTEAPEQWSECLARWRQMNQTHVKFLNDGTAPKSADTWMLYQALTGVWPPVLQPQDETGLNALKTRFEAFVEKALREAKLRTDWVDSNEAYETAMLDYARYLLAPDNQTFLQDFYRSLQPFIRAGLVNSLTQTVIKLTAPGVPDIYQGSEALNFSLVDPDNRREPDFATLAQQLDQLTPGVFSREESWLNGQVNQYVTAALLRLRQQNHELFRFGDYIPLRAVGQRADKVIAYARVNHDDALIVVAPRLVFAECDGLLSQSHSGFWSGTDIIIPGQLNQHRYRNVLTQERLMPGERLSLASHQGGVLVLMSD,failed
2,MGAFFMSVVSAFAGAAEACRPTGALQNVEVARVVDGDTVRLRDGRSVRLIGINAPELAHNGRTTEPFAEAAKQRLQALVSASDGRLALQPGRQARDHYGRTLAHLFDASGANLEARLLGEGLGYLVAVAPNTELTACQQAAERAARSANLGVWKRSPVLSLDRLAQSGFAVVRGRVLEVERNRGGIWLEMDGPLVLRIEPKVLKAFDAKRVMQMAGRSLEVRGWVVDRSRRGAVPAGKARWQMSVTDPAMLEWLPLEHHHHHH,failed
3,MGGLFVTPAKAVKTTNYAEEIAALQPGTTPEEIMKSASQIAKQQHVKQDVILKQFYKEITADKAEGDRLAKESGMSIMGGSSGTKKLPTSAKGNIYYTNSYTAYYNHGHVGMYSAADKIVESVPSDGVRQIAYNARDVEDNSIVQTVSVSSSQKTAAADWAVSKVGDPYSFNFVNNRNTGHDGAKNCSKLLWSAFLLKAGIDIDSNGGLGVYPRDITSSSYTTTIMTIYLEHHHHHH,failed
4,MTIAHISDLHFGRIADSGVVEALLDEINAAGIDLVAVSGDLTQRARPAEYRAARNLLDALGPPTLVVAGNHDVYPWWRPLKRLRTPLERYRQFITEDLAPTFEAGGVAALGLTSAYGPSIKGGRIGPADRAAMRAFFSGTGDDRFKVLVVHHQLHPTAIGPISPHPVARQAQQTLAVAGEVGIDLILCGHLHISAIQPLEIIPGTPRIVVASAGTATSNRWREPTGPINFYNVVSVEPEAFSVEERRYVPDEGRFVRDGVTRFDHAG,failed
5,MNRNGLLIALALFAGIGLTFGLFPGLDLWLAGLFYDTAAKTFPMRSMPDLEFARDFAMWVAWAIAAPSIFALVYKMIRPDRPLVMPGRTVAFLLISITLSAGVLTNMTFKSHWGRPRPAAVTEFNGPWQFKAWWDNSGACPKNCSFFSGEGATAYWTFAPAALTPPAVRPYAYAAAFTFGTVTSGLRMAFGGHFFTDVAIAGLVTFLVIWLLYALIYRWAWSRTSDEAIDAALTRAFWPLYRLRLKKWRGQDIGPAPAA,failed
6,SSAEAGGGIRKRHRTKFTAEQKERMLALAERIGWRIQRQDDEVIQRFCQETGVPRQVLKVWLHNNKH,not failed
7,LGINEISSSFFSLLLEILLLESQASLPMLEERVLDWQSSPASSLNSWFSAAPNWAELVLPALQYLAGESRAVPSSFSPFVEFKEKTQQWKLLGQSQDNEKELAALFQLWLETKDQAFCKQENEDSS,not failed
8,MERIRWLYGFLACILIAILLAPLQIMAQGEFRTSDQPLVYYIPVEQEVERGLEAFLQRSLDSAVEEGADHIVLEINTPGGRVDAAGNMARALRETDIPITAYVIDQALSAGAYIALNADEIVMAPGSTMGSAAVIDSAGNAADEKAQSYWLAEMRNAAEYNDRDPKYALAMADRSIEIPELDISNEELLTLTASQALEVNYAEAIASNRAELLEHLQIDNAFEQEMEVSFAEKLARFVTNPLIIPILLSIGSLGLVLELYSPGFGVPGIMGISALLLFFFGHLIAGFAGYEAMILFIAGFLLILIEVFMPGFGLFGILGIAGMIGGMLLASFSTAWMLVSLGISAVVTTVVAIITFRYFGSRGPWKKMILTESTSSEKGYITNETRQELVGLIGQSLTPLRPSGSGLFGEERLDVVSEGGYIEQGRKIKVVSTSGSRIVVRETDE,failed
9,MVHASVDIEVQFAIAVVKTLILVLGGIVTYLAYSAYQRTGDETLFQLSVGLALVGVGVLLGGFTFELLDVSLGVGVLIESLFVLAGLSVIAYSLKK,failed
10,KWIFREPSRTDGDDVYALITECPPLDINSSYCNFLQATHFSKTCVLAEKDGDLAGFISGYQEPDEPNTLFIWQVAVSPRYRGKGLAFSMLTTLLERKNLLHIEFIETTITKANNASWSLFKKIDAQYGNQGQVTTFLDKESHFKGKHDTEYLYRIPL,failed
11,MNNPGLFQARWNLGKLVLCNLLPLALLGFWLWPTGQALCTVFDEWLFHHLNAPLASNSTWLHIWAVASLRPFDIVVGLIMLGLLIRGDWVFKAVDVRRAFFGFLSILILMVVIRALFSKLVAVMNWQHNSPSMVLEGAVHMSDYFPGWEKTWELKDRSSQSFPGDHASVLLIWGLFMGIFSRSIGQFLIVWGLTLLFMMPRLVAGAHWGQDDYIGGVLLAVLALGWGYYTPYAARMSNFLLRLTHPLFNLLSRMPVLSRMSVVRASSLLR,failed
12,MWSSREIEDLGLTFAIAIDKGKETNTEKELKEEGGSYPKKDNITLTYQFVNEKAAGAGTSGGGGSGQGAQKAYINISETGDSLQQIGSEVALRRDREVFSPHLKVVVMSEDVLHTFPIDEMLDQFFRDNEIRLSCLVLSAKGEARDALQLKENGEIPAFRLIGLGENEHKVSRILPPMTLAKLIGKLHSGSSFLLQNVVAANGAVKYSGAAVINGKSKKMIGTLNEYETEGITWIRGEGKGGVVKSHDKKSQQTLAYDINKIKSRIQPIVKGKDISFHVDIESEGDLVENWNTKEALDTQFIDRLETTIENEVKKIVGQVLKKIQHDYKADVAGFDESFRLTYPHLWKRVKNNWDDTFSKADITYSVNVTITHFGTVKTQLEHHHHHH,not failed
13,MAGAYLHIPFCEHICYYCDFNKVFIEGQPVDDYVAMLLKEMRMVMAEHPEEKIQTVYVGGGTPSTLTPTQLATLCQGIHDILHFDQGEFTFEANPNDLLTTEKLQVLHDYGVNRLSIGVQSFNDDVLRRIGRIHRAKDVYTAIANARQVGFDNISIDLIFRLPDQSRDDFLTSLQKALALDLPHYSTYSLILERKTIFYNLMRQGKLRLPTQDVEADMYQDAIDLMEAHGRHQYEISNFAKDGYQCEHNLLYWRNDKYFGFGAGAFGYLGRDRYHNYGPIKQYLTPLHADHLPVLEHHLVPQSEQIEEEMFLGLRTMQGVSEARFYDRYHMTVDAIYGETVPELVSQGLVVRQDGYIRLTNKGKFLGNEVFQRFLIDEPLVLEHHHHHH,not failed
14,MTESESASGMDGVVLGGTASGVGKTVATLAVARALADAGHDVQPAKAGPDFIDPSHHEPVVGTPSRSLDPWLSGTDGMRRTYHQGDGDVCVVEGMMGLYDGSVASTARVASELDLPVVLVVDASAGMQSVAATALGFQAYAAEASVDVDVAGVLAQRAHGGRHADGIRDALPDSLTYFGRVPPRDDLDVPDRHLGLHMGSEAAIDDDAVDAAAAHVAAKRIADVARTPPRPPAHDPAPDTGQTVAVADDAAFCFAYPATRERLRERADVVTFSPVAGDDLPACDGVYLPGGYPELHTDALADAPALDTLGARAADGLPVLGECGGLMALAESLTTTDGDTAEMAGVLPADVRMQDRYQALDHVELRATGDTLTAGSGATLRGHEFHYSAATVASDARFAFAVERGDGIDGDHDGLTEYRTLGTYAHVHPESTAFDAFLDAL,failed
15,ARYYQHNAIEAVLEAISQGKNRMLLTLATGTGKTFIAFQLAWKLFQAKWNISGEPTHRPRILFLADRNILANQAFNAFGAFDDDALVRIDPKEIKKKGKVPKNGSLFFSIFQTFMTTKGDKDFAHFYDYAPDFFDFIIIDECHRGGANDESTWRKILEYFSPAVQLGLTATPKRDVNGDTYKYFGEPLYTYSLKEGINDGYLTPFKVVQFTTTLDEYLYDPDDDVIEGDIDEARTYEEKDFNRIIEMEEREKQRVQLFMEAINQNEKTLVFCATQDHALAVRDLINQMKISTDPNYCVRVTANDGSIGETNLKTFQDNEKAIPTILTTSRKLSTGVDARNVRNIVLLRPINSMIEFKQIIGRGTRLFDNKDYFTIYDFVRAYEHFNDDEWDGEPTEPVAIDPEPRKEREKIDLDLEDEPEENRKPQKIKVKLADGKERELAHTQTTTFWDADGKPISAQEFIEKLFGDLPDLFKDEAELRTIWGKPDTRKSFLTGLAE,failed
16,MNKVDEIEDFRFEDLEMETEKDKERMMTPTTRMSYSSSSSPSPSSASSSAASSLAAKAIRASSAHRDSSLSSAYSSPSSAPVPTPPKEVNKAYEYTSMKSLNEPKRGFWGSLASKAKAFLDEDDPNQLPQSPKRMEQSIPSATTSGTKEAGQTGRKSENPSLQRRLDAITSSLNYIGGTIGTVVEEGITAVENRTAGIIQETRKKIKKKPSLTRNQQNPEIQADLEIQLKASRDVAMAMAAKAKLLLRELKMVKSDLAFAKQRCAQLEEENKVLRENRSGDSQTDDDDLVRLQLETLLAEKARLAHENSIYTRENLYLRGVVEYHQLTMQDVVYFDEKTEEVTEVYPINVSSMSSSSDNSYNPNPSFLELK,failed
17,MAYEDLSKKIIAGVGGKDNVKSVVHCTTRLRFKLKDESATHTDELKDTDGVITVVQSGGQYQVVIGNEVADVYETLIRVGGFADGGSVPDDYEDGEKMSIFDRFIDLISGIFTPMLGVLCAAGMIKGFVAMFVAFNWLSENSGTYKILYSIGDGFFYFLPIVLGLTAAKKFHVDQFVGMAIGMALCYPSIVALNSSKTVLSTLFSGSIFESQIHATFLGIPVVMMSYTSSVIPIILAVWFASKVQAFAKRIVPTVVKTFLVPFITLLIAVPITFLIIGPVASWLSDGISTVCVAIYNFSPIVAGLVMGAFWQVFVIFGVHWGFVAVMMANLASQGFDPILGLSLAASFAQTGVVLGILLQTKNQKTRGIALPAFISGIFGVTEPAIYGLTLPRKRPFILSCVAASIGGGIIGFAGTKMYMMGGMGLFSIPAAINSKTGVDGSVYGLIIAMAIAAVLGFALQMLFGYKSVDSNDKQTKVVETAATADPVMAGGVSVETTPTGAATKVEPNVTYNAATKLSSPETGQIIPLSEVKDEVFSSGAMGKGVAIEPTDGVLYAPADGEVALVFPTGHAVGLNTTDGAEILMHIGMDTVELEGKGFETLVQKGETVKAGQPLVKFDIEAIKAAGYPVTTPMVVTNSKNYHDVKLAFPAATEVNATEPLLQLN,failed
18,MGHHHHHHSHCDSDCLWVGLAGPQILPPCRSIVRTLHQHKLGRASWPSVQQGLQQSFLHTLDSYRILQKAAPFDRRATSLAWHPTHPSTVAVGSKGGDIMLWNFGIKDKPTFIKGIGAGGSITGLKFNPLNTNQFYASSMEGTTRLQDFKGNILRVFASSDTINIWFCSLDVSASSRMVVTGDNVGNVILLNMDGKELWNLRMHKKKVTHVALNPCCDWFLATASVDQTVKIWDLRQVRGKASFLYSLPHRHPVNAACFSPDGARLLTTDQKSEIRVYSASQWDCPLGLIPHPHRHFQHLTPIKAAWHPRYNLIVVGRYPDPNFKSCTPYELRTIDVFDGNSGKMMCQLYDPESSGISSLNEFNPMGDTLASAMGYHILIWSQEEARTRK,failed

# Reference: a protein production outcome set (Wang et al. 2014)
